The values below come from paper PMC9237092, “Structural basis for defective membrane targeting of mutant enzyme in human VLCAD deficiency” (Nature Communications, 2022).

As usually defined, the stoichiometry N is the number of molecules, sites or subunits per partner or assembly.

B1: full-length human VLCAD (very long-chain acyl-CoA dehydrogenase) lacking its cleavable leader sequence, wild type (enzyme, UniProt P49748 41-655, looked up)
chain: AGGAAQLALDKSDSHPSDALTRKKPAKAESKSFAVGMFKGQLTTDQVFPYPSVLNEEQTQFLKELVEPVSRFFEEVNDPAKNDALEMVEETTWQGLKELGAFGLQVPSELGGVGLCNTQYARLVEIVGMHDLGVGITLGAHQSIGFKGILLFGTKAQKEKYLPKLASGETVAAFCLTEPSSGSDAASIRTSAVPSPCGKYYTLNGSKLWISNGGLADIFTVFAKTPVTDPATGAVKEKITAFVVERGFGGITHGPPEKKMGIKASNTAEVFFDGVRVPSENVLGEVGSGFKVAMHILNNGRFGMAAALAGTMRGIIAKAVDHATNRTQFGEKIHNFGLIQEKLARMVMLQYVTESMAYMVSANMDQGATDFQIEAAISKIFGSEAAWKVTDECIQIMGGMGFMKEPGVERVLRDLRIFRIFEGTNDILRLFVALQGCMDKGKELSGLGSALKNPFGNAGLLLGEAGKQLRRRAGLGSGLSLSGLVHPELSRSGELAVRALEQFATVVEAKLIKHKKGIVNEQFLLQRLADGAIDLYAMVVVLSRASRSLSEGHPTAQHEKMLCDTWCIEAAARIREGMAALQSDPWQQELYRNFKSISKALVERGGVVTSNPLGF
notes: mature protein aa 1-615. numbers count on: the mature protein; pET19b vector; also called wild-type VLCAD; full-length VLCAD; source: E. coli BL21(DE3), purified (Ni-NTA, SEC)
B2: full-length human VLCAD L462P (enzyme, UniProt P49748 41-655, looked up)
chain: AGGAAQLALDKSDSHPSDALTRKKPAKAESKSFAVGMFKGQLTTDQVFPYPSVLNEEQTQFLKELVEPVSRFFEEVNDPAKNDALEMVEETTWQGLKELGAFGLQVPSELGGVGLCNTQYARLVEIVGMHDLGVGITLGAHQSIGFKGILLFGTKAQKEKYLPKLASGETVAAFCLTEPSSGSDAASIRTSAVPSPCGKYYTLNGSKLWISNGGLADIFTVFAKTPVTDPATGAVKEKITAFVVERGFGGITHGPPEKKMGIKASNTAEVFFDGVRVPSENVLGEVGSGFKVAMHILNNGRFGMAAALAGTMRGIIAKAVDHATNRTQFGEKIHNFGLIQEKLARMVMLQYVTESMAYMVSANMDQGATDFQIEAAISKIFGSEAAWKVTDECIQIMGGMGFMKEPGVERVLRDLRIFRIFEGTNDILRLFVALQGCMDKGKELSGLGSALKNPFGNAGLLPGEAGKQLRRRAGLGSGLSLSGLVHPELSRSGELAVRALEQFATVVEAKLIKHKKGIVNEQFLLQRLADGAIDLYAMVVVLSRASRSLSEGHPTAQHEKMLCDTWCIEAAARIREGMAALQSDPWQQELYRNFKSISKALVERGGVVTSNPLGF
notes: Mutation observed in patients with VLCAD deficiency; made by site-directed mutagenesis of the pET19b construct; also called L462P mutant; source: E. coli BL21(DE3), purified (Ni-NTA, SEC)
B3: full-length human VLCAD A450P (enzyme, UniProt P49748 41-655, looked up)
chain: AGGAAQLALDKSDSHPSDALTRKKPAKAESKSFAVGMFKGQLTTDQVFPYPSVLNEEQTQFLKELVEPVSRFFEEVNDPAKNDALEMVEETTWQGLKELGAFGLQVPSELGGVGLCNTQYARLVEIVGMHDLGVGITLGAHQSIGFKGILLFGTKAQKEKYLPKLASGETVAAFCLTEPSSGSDAASIRTSAVPSPCGKYYTLNGSKLWISNGGLADIFTVFAKTPVTDPATGAVKEKITAFVVERGFGGITHGPPEKKMGIKASNTAEVFFDGVRVPSENVLGEVGSGFKVAMHILNNGRFGMAAALAGTMRGIIAKAVDHATNRTQFGEKIHNFGLIQEKLARMVMLQYVTESMAYMVSANMDQGATDFQIEAAISKIFGSEAAWKVTDECIQIMGGMGFMKEPGVERVLRDLRIFRIFEGTNDILRLFVALQGCMDKGKELSGLGSPLKNPFGNAGLLLGEAGKQLRRRAGLGSGLSLSGLVHPELSRSGELAVRALEQFATVVEAKLIKHKKGIVNEQFLLQRLADGAIDLYAMVVVLSRASRSLSEGHPTAQHEKMLCDTWCIEAAARIREGMAALQSDPWQQELYRNFKSISKALVERGGVVTSNPLGF
notes: Mutation observed in patients with VLCAD deficiency; made by site-directed mutagenesis of the pET19b construct; also called A450P variant; source: E. coli BL21(DE3), purified (Ni-NTA, SEC)

The series deals with the molecule itself. Description: SEC; Superdex 200 10/300 GL, 4 °C, 250 mM NaCl, 50 mM Tris, pH 8.0; purified VLCAD proteins; peak at ~150 kDa. In general terms: SEC sorts molecules by how far they enter the pores of the column.
Turning to B1, the “stoichiometry N” value worked out at 2.

With B2, the “stoichiometry N” value was 2.

On to B3, for which the “stoichiometry N” value was determined as 2.
